In experiment [1] the target is MmpL3 protein from M. tuberculosis, C-terminally hexahistidine-tagged, devoid of gfp fusion (M. tuberculosis) (UniProt P9WJV5). In words: SPR; MmpL3 immobilised on CM5 chip; analytes injected at two-fold increasing concentrations from 0.6 µM up to 10 µM, 10 µL/min for 30 sec, dissociation 180 sec, 25 °C; 20 mM HEPES pH 7.4, 150 mM NaCl, 0.2% Triton X-100 (0.03% DDM instead for AftD); global fit to the 1:1 Langmuir binding model.

Experiment [2] has as its target T1, MmpL3 from M. tuberculosis, C-terminally hexahistidine-tagged, purified (M. tuberculosis, UniProt P9WJV5 1-944).
T1 chain: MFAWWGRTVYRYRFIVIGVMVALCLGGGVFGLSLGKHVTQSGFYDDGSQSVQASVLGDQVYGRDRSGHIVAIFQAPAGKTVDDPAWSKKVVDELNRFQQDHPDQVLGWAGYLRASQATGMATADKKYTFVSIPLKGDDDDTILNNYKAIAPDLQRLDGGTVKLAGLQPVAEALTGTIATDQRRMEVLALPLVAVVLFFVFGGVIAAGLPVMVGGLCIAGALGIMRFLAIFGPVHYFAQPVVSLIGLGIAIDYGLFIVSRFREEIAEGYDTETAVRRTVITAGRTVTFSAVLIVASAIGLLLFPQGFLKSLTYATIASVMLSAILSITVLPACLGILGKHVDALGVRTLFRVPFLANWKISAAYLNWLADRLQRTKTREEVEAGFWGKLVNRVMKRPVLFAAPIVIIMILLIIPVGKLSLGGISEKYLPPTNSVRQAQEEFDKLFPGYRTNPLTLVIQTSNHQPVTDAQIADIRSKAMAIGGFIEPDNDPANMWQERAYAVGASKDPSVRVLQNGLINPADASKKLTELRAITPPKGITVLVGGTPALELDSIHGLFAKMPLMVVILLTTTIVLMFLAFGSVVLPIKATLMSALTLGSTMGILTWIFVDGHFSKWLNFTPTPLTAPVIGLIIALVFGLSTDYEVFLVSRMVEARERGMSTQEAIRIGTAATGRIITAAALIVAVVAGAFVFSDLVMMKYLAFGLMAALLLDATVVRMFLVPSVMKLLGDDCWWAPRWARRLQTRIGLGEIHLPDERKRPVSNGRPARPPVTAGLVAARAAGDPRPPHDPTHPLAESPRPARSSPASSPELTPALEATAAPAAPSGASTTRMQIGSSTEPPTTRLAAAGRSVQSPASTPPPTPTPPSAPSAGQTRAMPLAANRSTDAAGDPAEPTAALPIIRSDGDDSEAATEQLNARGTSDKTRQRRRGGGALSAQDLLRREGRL
Nature of the experiment: SPR.

Experiment [3] concerns the target T2, MmpL3 protein from M. tuberculosis, C-terminally hexahistidine-tagged, devoid of gfp fusion (M. tuberculosis, UniProt P9WJV5 1-944).
T2 construct: MmpL3 (Rv0206c), mycolic acid (TMM) transporter of M. tuberculosis; also called MmpL3tb; Rv0206c
T2 sequence: T1 chain
In words: SPR; MmpL3 immobilised on CM5 chip; analytes injected at two-fold increasing concentrations from 0.6 µM up to 10 µM, 10 µL/min for 30 sec, dissociation 180 sec, 25 °C; 20 mM HEPES pH 7.4, 150 mM NaCl, 0.2% Triton X-100 (0.03% DDM instead for AftD); global fit to the 1:1 Langmuir binding model. The conditions noted are these: both partners purified.

Here are results for four molecules from publication PMC6656915, “The MmpL3 interactome reveals a complex crosstalk between cell envelope biosynthesis and cell elongation and division in mycobacteria” (Scientific Reports, 2019).

As to “AftD from Mycobacterium abscessus (enzyme)”, in experiment [1], the equilibrium dissociation constant (Kd) came to 170 nM, the koff was 0.00335 s⁻¹ and the kon was 19400 M⁻¹ s⁻¹.

B1: AftD from Mycobacterium abscessus, N-terminal 10-histidine tag, purified (natural protein)
chain: MTYRLDSSALSRRWLAVAAAVSLLLTFSQSPGQISPDTKLDLAINPLRFAARALNLWSSDLPFGQAQNQAYGYLFPHGAFFSLGHLLGVPAWVTQRLWWALLIVAGFWGLIRVAEALGIGTRGSRIIAAVAFALSPRVLTTLGAISSETLPMMLAPWVLLPLILTFQGRMSPRRAAALSAVAVALMGAVNAVATALACGVAVIWWLAHRPNRTWWRFTAWWIPCLALASTWWIVALLIFGKISPKFLDFIESSGVTTQWTSLTEVLRGTDSWTPFVAPTATAGSSLVTQSAMVIATTMLAAAGMAGLAMRGMPARGRLVAVLLIGLVLLTAGYTGALGSPIAQQIQFFLDDGGTPLRNVHKLEPLIRLPLILGLAHALSRIPLPASVPVRQWLSALARPERNRAVAFAIVLLVALAASTSLAWTGRLVPRGGFDAIPGYWNDTAHWLADHDTGGRALVVPGAPFAIQTWGLTRDEPLQALGQTPWGVRDSIPLTPPETIRAIDSVQQLFAAGRPSDGLADTLREQGISYLVVRNDLDPDTSRSARPILVHHTIEGSPGLTKVAQFGDPVGAGAVEGFVADSDLRPQYPAVEIYAVGANDHDGEPYFTDIDTMPRVAGGPEALLRLNERRRQLNEPPLGPSLLATDAAQAGLRPGPAVVTDTPLARETDYGRVDDHSSAIRAPGDKRRTFNRVPDYPATGVPLVNGSWTGGTITASSSASDSTALPNVAPGTSTAAAIDRDNATSWVSSSLEAALGQWIRIDLDRPITNAILTVTPSATALGAQVRRLEVETDNGTTSVRFDEPGQPLNIALRPGETTWVKVTATGTDDGTSGVQFGVTELSLTQYDAAGFAHTVDLRHSATVPPPPAGDNPLGWDLGSPLQGRSGCAPSPQRLRCAATLSLAPEEPGTFIRTLTVPQPVSLTPRLWVRARPGPQLRDLIQQPGTTVATGDSDVIDPQGSSYAATDGDPGTVWTAPQDSVQRLHLPSLVIKLPKPTAIGAIRLRPSRTEVPAHPKQVAINLGDGPQLRSIDPKADVTELALHPSITDTITVTVTDWTDIIDRTALGFDQLKPPGIAEVIALDADHRPIAPADNAANSKRKITIGCNRGPILALAGRFVPMSITATVRELLDGTVIQATPCDTSPIATGAGIQDVTVNPSQQFIVDGVQLTAAATEPASATMTVAPKGAWGPDRREVTAEPSAHERVLAVPESINPGWAARDAQGHLLTPVRVNGWQQGWVLPAGDGGKITLTFGLNTWYRAGLFGGLALLPILACLALLPARGRTTLPPVAPWCAGPAAGVAVLAALTAISGISGMAVGLAALAFKVWTRWPLRAVTAAGVYLAGGSLLLAGAALSRHPWRSVGGYTGHSWWIQLLALISVASVALAAVRLPSRRCWKRRSASREGDSTSA
B1 returned a Kd in experiment [2] of 172 nM.

B2: CrgA from M. tuberculosis H37Rv with C-terminal hexahistidine tag (natural protein)
chain: MPKSKVRKKNDFTVSAVSRTPMKVKVGPSSVWFVSLFIGLMLIGLIWLMVFQLAAIGSQAPTALNWMAQLGPWNYAIAFAFMITGLLLTMRWH
notes: CrgA (Rv0011c), cell division regulatory protein of M. tuberculosis H37Rv; also called Rv0011c
For the molecule B2, in experiment [3], binding was put at a Kd of 470 nM, the koff is 0.0015 s⁻¹ and the kon is 3180 M⁻¹ s⁻¹.

B3: Rv0207c from M. tuberculosis H37Rv with C-terminal hexahistidine tag (natural protein)
chain: MSLTEDVTSQTSESLARHSVLAEDLSQDGLTSLGAPGARVLLVWDAPNLDMGLGSILGRRPTALERPRFDALGRWLLARTAEIVAGRPGISTEPEATVFTNIAPGSAEVVRPWVDALRNVGFAVFAKPKVDEDSDVDRDMLAHIDERYREGLAALVVASADGQAFRQPLEAVARSGTPVQVLGFREHASWALASDTLEFVDLEDIAGVFREPLPRIGLDSLPEQGAWLQPFRPLSSLLTSRV
notes: Rv0207c, conserved protein of unknown function of M. tuberculosis H37Rv
As for B3, in experiment [3], binding was put at a Kd of 150 nM, the koff is 0.00227 s⁻¹ and the kon amounted to 14900 M⁻¹ s⁻¹. In experiment [2], this molecule gave a Kd of 152 nM.
